Experimental data published in publication PMC9165289, “Theranostic PSMA ligands with optimized backbones for intraoperative multimodal imaging and photodynamic therapy of prostate cancer” (European Journal of Nuclear Medicine and Molecular Imaging, 2022).
Where two headings read alike, the source gives them in different places.

Experiments:
LS174T-PSMA cells = assay: in vitro binding and internalization assay; format: cell-based, human; settings: 37 °C, 2 h
Protocol: The binding and internalization characteristics of the ligands were determined using LS174T-PSMA cells. Cells were cultured to confluency in 6-well plates followed by incubation with 50,000 counts per minute of ^111In-labeled ligand (0.1–0.25 pmol/well) in 1-ml RPMI + 0.5% BSA (37 °C, 2 h). Non-specific binding was determined by coincubation with 2(phosphonomethyl)-pentane-1,5-dioic acid (2-PMPA, 21.57 µM). PSMA-specific binding was defined as total binding minus the non-specific binding. To retrieve the membrane-bound fraction, cells were washed twice with PBS and incubated for 10 min at 0 °C with acid buffer (154-mM NaCl, 0.1 M acetic acid, pH 2.6). After incubation, the membrane-bound fraction was collected. Then, cells were washed and lysed with 0.1 M NaOH, and the cell lysate (intracellular activity) was collected. Intracellular and membrane-bound activity fractions were measured in a gamma-counter (2480 WIZARD^2 Automatic Gamma Counter, PerkinElmer).

[1] = PSMA-N064 blocking experiment, ex vivo biodistribution; format: in vivo, BALB/c nude mice; settings: male, BALB/c nude, mouse, in vivo, total radioactivity, 2 h p.i., n=5
Protocol: All animal experiments were approved by the institutional Animal Welfare Committee of the Radboud University Medical Center and were conducted in accordance to the guidelines of the Revised Dutch Act on Animal Experimentation. Animal experiments were performed in 8–10 weeks old male BALB/c nude mice (Janvier). The mice were housed in individually ventilated cages (Blue line IVC, 3–5 mice per cage), under standard non-sterile conditions with cage enrichment present. There was free access to chlorophyll-free animal chow (Sniff Voer) and water. Mice were subcutaneously inoculated with 3.0 × 10^6 LS174T-PSMA cells in the right flank and 1.5 × 10^6 LS174T WT cells in the left flank (diluted in 200-µl RPMI 1640 medium). When xenografts were approximately 0.5 cm^3 (10–14 days after injection), mice were block-randomized into groups based on tumor size. The researchers were not blinded for the experimental groups.
Five mice per group were intravenously injected with either 0.1 nmol PSMA-N064, 0.3 nmol PSMA-N064, 0.1 nmol PSMA-N064 + 10 nmol unlabeled PSMA-617 (100x excess) or PSMA-617. Ligands were labeled with 10 MBq ^111In in PBS+0.5% (w/v) BSA. For the ex vivo biodistribution four groups (one for each experimental condition) of five mice were included. Two hours p.i., all mice from all groups were euthanized by CO2/O2-asphyxiation and relevant tissues were dissected, weighed and measured for radioactivity in a gamma-counter (2480 WIZARD^2 Automatic Gamma Counter, PerkinElmer).

Question: With C[Si](C)(CCC[N+](CCCS(=O)(=O)[O-])(CCCS(=O)(=O)O)CCCS(=O)(=O)O)O[Si]1(O[Si](C)(C)CCC[N+](CCCS(=O)(=O)[O-])(CCCS(=O)(=O)O)CCCS(=O)(=O)O)n2c3c4ccccc4c2N=C2N=C(N=c4c5c(OCCCOC(=O)NCCCCCC(=O)NCCCC[C@H](NC(=O)CN6CCN(CC(=O)O)CCN(CC(=O)O)CCN(CC(=O)O)CC6)C(=O)NCCCC[C@H](NC(=O)[C@H](CCC(=O)O)NC(=O)c6ccccc6)C(=O)NCc6ccc(C(=O)N[C@@H](Cc7ccc8ccccc8c7)C(=O)NCCCC[C@H](NC(=O)N[C@@H](CCC(=O)O)C(=O)O)C(=O)O)cc6)cccc5c(n41)=NC1=NC(=N3)c3ccccc31)c1ccccc12 [PSMA-N01] as the compound, how does the “internalization percentage (percentage of cell-associated ligand that was internalized)” value (LS174T-PSMA cells) read?
Answer: Its value is 73–90%.

Question: Which “internalization percentage (percentage of cell-associated ligand that was internalized)” value (LS174T-PSMA cells) does the source give for C[Si](C)(CCC[N+](CCCS(=O)(=O)[O-])(CCCS(=O)(=O)O)CCCS(=O)(=O)O)O[Si]1(O[Si](C)(C)CCC[N+](CCCS(=O)(=O)[O-])(CCCS(=O)(=O)O)CCCS(=O)(=O)O)n2c3c4ccccc4c2N=C2N=C(N=c4c5c(OCCCOC(=O)NCCCCCC(=O)NCCCC[C@H](NC(=O)CN6CCN(CC(=O)O)CCN(CC(=O)O)CCN(CC(=O)O)CC6)C(=O)NCCCC[C@H](NC(=O)[C@H](CCC(=O)O)NC(=O)c6ccccc6)C(=O)NC[C@H]6CC[C@H](C(=O)N[C@@H](Cc7ccc8ccccc8c7)C(=O)NCCCC[C@H](NC(=O)N[C@@H](CCC(=O)O)C(=O)O)C(=O)O)CC6)cccc5c(n41)=NC1=NC(=N3)c3ccccc31)c1ccccc12 [PSMA-N03] here?
Answer: Its value is 73–90%.

Question: For C[Si](C)(CCC[N+](CCCS(=O)(=O)[O-])(CCCS(=O)(=O)O)CCCS(=O)(=O)O)O[Si]1(O[Si](C)(C)CCC[N+](CCCS(=O)(=O)[O-])(CCCS(=O)(=O)O)CCCS(=O)(=O)O)n2c3c4ccccc4c2N=C2N=C(N=c4c5c(OCCCOC(=O)NCCCCCC(=O)NCCCC[C@H](NC(=O)CCC(C(=O)O)N6CCN(CC(=O)O)CCN(CC(=O)O)CCN(CC(=O)O)CC6)C(=O)N[C@@H](Cc6ccccc6)C(=O)N[C@@H](CCC(=O)O)C(=O)N[C@@H](CCC(=O)O)C(=O)NCCCCCC(=O)NCCCC[C@H](NC(=O)N[C@@H](CCC(=O)O)C(=O)O)C(=O)O)cccc5c(n41)=NC1=NC(=N3)c3ccccc31)c1ccccc12 (some centres unmarked) [PSMA-N064], which tissue uptake at 2 h ([1]; iv, 0.1 nmol, 0.1 nmol, 10 MBq, i.v., read-out: Biodistribution Blood) is on record?
Answer: Its tissue uptake at 2 h is 0.2 ± 0.2 %ID/g.

Question: And the tissue uptake at 2 h ([1]; iv, 0.1 nmol, 0.1 nmol, 10 MBq, i.v., read-out: Biodistribution Bone)?
Answer: Its tissue uptake at 2 h is 0.7 ± 0.2 %ID/g.

Question: And the tissue uptake at 2 h ([1]; iv, 0.1 nmol, 0.1 nmol, 10 MBq, i.v., read-out: Biodistribution Kidney)?
Answer: The tissue uptake at 2 h was 82.9 ± 7.8 %ID/g.

Question: And the tissue uptake at 2 h ([1]; iv, 0.1 nmol, 0.1 nmol, 10 MBq, i.v., read-out: Biodistribution Liver)?
Answer: Its tissue uptake at 2 h is 0.8 ± 0.1 %ID/g.

Question: What about the tissue uptake at 2 h ([1]; iv, 0.1 nmol, 0.1 nmol, 10 MBq, i.v., read-out: Biodistribution Muscle) of the same compound?
Answer: Its tissue uptake at 2 h is 0.4 ± 0.4 %ID/g.

Question: What about the tissue uptake at 2 h ([1]; iv, 0.1 nmol, 0.1 nmol, 10 MBq, i.v., read-out: Biodistribution Prostate) of the same compound?
Answer: Its tissue uptake at 2 h is 0.5 ± 0.2 %ID/g.

Question: What about the tissue uptake at 2 h ([1]; iv, 0.1 nmol, 0.1 nmol, 10 MBq, i.v., read-out: Biodistribution Salivary glands) of the same compound?
Answer: The tissue uptake at 2 h was 0.6 ± 0.1 %ID/g.

Question: And the tissue uptake at 2 h ([1]; iv, 0.1 nmol, 0.1 nmol, 10 MBq, i.v., read-out: Biodistribution Spleen)?
Answer: Its tissue uptake at 2 h is 1.6 ± 0.4 %ID/g.

Question: What about the tissue uptake at 2 h ([1]; iv, 0.1 nmol, 0.1 nmol, 10 MBq, i.v., read-out: Biodistribution Tumor+ LS174T-PSMA) of the same compound?
Answer: The tissue uptake at 2 h was 12 ± 2 %ID/g.

Question: What about the tissue uptake at 2 h ([1]; iv, 0.1 nmol, 0.1 nmol, 10 MBq, i.v., read-out: Biodistribution Tumor- LS174T) of the same compound?
Answer: The tissue uptake at 2 h was 0.4 ± 0.1 %ID/g.

Question: And the tissue uptake at 2 h ([1]; iv, 0.3 nmol, 0.3 nmol, 10 MBq, i.v., read-out: Biodistribution Blood)?
Answer: The tissue uptake at 2 h was 0.4 ± 0.3 %ID/g.

Question: And the tissue uptake at 2 h ([1]; iv, 0.3 nmol, 0.3 nmol, 10 MBq, i.v., read-out: Biodistribution Bone)?
Answer: Its tissue uptake at 2 h is 0.8 ± 0.1 %ID/g.

Question: And the tissue uptake at 2 h ([1]; iv, 0.3 nmol, 0.3 nmol, 10 MBq, i.v., read-out: Biodistribution Kidney)?
Answer: Its tissue uptake at 2 h is 64.4 ± 9.7 %ID/g.

Question: What about the tissue uptake at 2 h ([1]; iv, 0.3 nmol, 0.3 nmol, 10 MBq, i.v., read-out: Biodistribution Liver) of the same compound?
Answer: The tissue uptake at 2 h was 1 ± 0.2 %ID/g.

Question: And the tissue uptake at 2 h ([1]; iv, 0.3 nmol, 0.3 nmol, 10 MBq, i.v., read-out: Biodistribution Muscle)?
Answer: The tissue uptake at 2 h was 0.5 ± 0.3 %ID/g.

Question: And the tissue uptake at 2 h ([1]; iv, 0.3 nmol, 0.3 nmol, 10 MBq, i.v., read-out: Biodistribution Prostate)?
Answer: The tissue uptake at 2 h was 0.6 ± 0.2 %ID/g.

Question: What about the tissue uptake at 2 h ([1]; iv, 0.3 nmol, 0.3 nmol, 10 MBq, i.v., read-out: Biodistribution Salivary glands) of the same compound?
Answer: The tissue uptake at 2 h was 0.6 ± 0.2 %ID/g.

Question: What about the tissue uptake at 2 h ([1]; iv, 0.3 nmol, 0.3 nmol, 10 MBq, i.v., read-out: Biodistribution Spleen) of the same compound?
Answer: The tissue uptake at 2 h was 1.9 ± 0.5 %ID/g.

Question: What about the tissue uptake at 2 h ([1]; iv, 0.3 nmol, 0.3 nmol, 10 MBq, i.v., read-out: Biodistribution Tumor+ LS174T-PSMA) of the same compound?
Answer: The tissue uptake at 2 h was 12.2 ± 1.1 %ID/g.

Question: What about the tissue uptake at 2 h ([1]; iv, 0.3 nmol, 0.3 nmol, 10 MBq, i.v., read-out: Biodistribution Tumor- LS174T) of the same compound?
Answer: The tissue uptake at 2 h was 0.5 ± 0.1 %ID/g.

Question: What about the tissue uptake at 2 h ([1]; 0.1 nmol + 10 nmol unlabeled PSMA-617 (block, 100x excess), read-out: Biodistribution Blood) of the same compound?
Answer: The tissue uptake at 2 h was 0.2 ± 0.1 %ID/g.

Question: And the tissue uptake at 2 h ([1]; 0.1 nmol + 10 nmol unlabeled PSMA-617 (block, 100x excess), read-out: Biodistribution Bone)?
Answer: Its tissue uptake at 2 h is 0.4 ± 0.1 %ID/g.

Question: And the tissue uptake at 2 h ([1]; 0.1 nmol + 10 nmol unlabeled PSMA-617 (block, 100x excess), read-out: Biodistribution Kidney)?
Answer: The tissue uptake at 2 h was 39.5 ± 5 %ID/g.

Question: What about the tissue uptake at 2 h ([1]; 0.1 nmol + 10 nmol unlabeled PSMA-617 (block, 100x excess), read-out: Biodistribution Liver) of the same compound?
Answer: The tissue uptake at 2 h was 0.7 ± 0.2 %ID/g.

Question: What about the tissue uptake at 2 h ([1]; 0.1 nmol + 10 nmol unlabeled PSMA-617 (block, 100x excess), read-out: Biodistribution Muscle) of the same compound?
Answer: Its tissue uptake at 2 h is 0.1 ± 0.1 %ID/g.

Question: What about the tissue uptake at 2 h ([1]; 0.1 nmol + 10 nmol unlabeled PSMA-617 (block, 100x excess), read-out: Biodistribution Prostate) of the same compound?
Answer: The tissue uptake at 2 h was 0.2 ± 0.1 %ID/g.

Question: And the tissue uptake at 2 h ([1]; 0.1 nmol + 10 nmol unlabeled PSMA-617 (block, 100x excess), read-out: Biodistribution Salivary glands)?
Answer: Its tissue uptake at 2 h is 0.4 ± 0.1 %ID/g.

Question: And the tissue uptake at 2 h ([1]; 0.1 nmol + 10 nmol unlabeled PSMA-617 (block, 100x excess), read-out: Biodistribution Spleen)?
Answer: Its tissue uptake at 2 h is 0.5 ± 0.1 %ID/g.

Question: What about the tissue uptake at 2 h ([1]; 0.1 nmol + 10 nmol unlabeled PSMA-617 (block, 100x excess), read-out: Biodistribution Tumor+ LS174T-PSMA) of the same compound?
Answer: Its tissue uptake at 2 h is 1 ± 0.1 %ID/g.

Question: And the tissue uptake at 2 h ([1]; 0.1 nmol + 10 nmol unlabeled PSMA-617 (block, 100x excess), read-out: Biodistribution Tumor- LS174T)?
Answer: The tissue uptake at 2 h was 0.4 ± 0.2 %ID/g.
